The values that follow come from publication PMC10825162 (Nature Communications, 2024).

For this assay, the target named is SARS-CoV-2 spike (reference strain) expressed on CHO-K1 cells (SARS-CoV-2 reference strain (Wuhan-Hu-1), UniProt P0DTC2). As to the kind of experiment: flow cytometry on cells. The conditions noted are these: one partner purified.

B1: BA7208 (antibody, V domains shown)
VH: EVQLVQSGAEVKKPGESLKISCKGSGYSFTSYYWIGWVRQMPGKGLEWMGIVYPDDSDTRYSPSFQGQVTISADKSISTAYLQWSSLKASDTAMYYCVRHPGGGDWYFDLWGRGTLVTVSS
VL: DIQMTQSPSTLSASVGDRVTITCRASQSISSWLAWYQQKPGKAPKLLIYKASSLESGVPSRFSGSGSGTEFTLTITSLQPDDFATYYCQQYDSFSWTFGQGTKLEIK
Take B1: the binding result is listed as “binds”.
